± gives the standard deviation of the averaged measurements.
B1: library; a variant is named by its letters at N, in order (parent)
chain: GCUGUCACCGGUGCUUGGUACGUUAUAUUCAGCCGGUCUGAUGAGUCUNNNNNNAGACGAAACAGC

Experiments:
(6R,S)-folinic acid [1] = variants of: B1; experiment: FACS-Seq fitted mean relative fluorescence mCherry/BFP without ligand (log10 relative fluorescence); HEK293T overexpressing SLC46A1; higher = higher reporter protein expression; conditions: without (6R,S)-folinic acid; ligand present: no
Summary of the method: (§1)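 To measure fluorescence, a normal distribution was fitted to read counts across sorted bins. The reporter libraries were HEK293T cells transduced by lentivirus with mCherry under ribozyme-switch control and an EF1α-BFP marker, enriched and then kept with or without ligand for 48 h. Sorting used 6 mCherry/BFP bins, and bin genomic DNA was PCR-amplified and sequenced on MiSeq. Fitted means of log10(mCherry/BFP) were scaled to five spiked-in control ribozymes.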

(6R,S)-folinic acid [2] = variants of: B1; experiment: normalized RNA/DNA level without ligand (relative to sTRSVctl = 100) (log10 (% of sTRSVctl)); HEK293T overexpressing SLC46A1; higher = less ribozyme self-cleavage, higher mRNA level; conditions: without (6R,S)-folinic acid; ligand present: no
Summary of the method: (§2)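 Ribozyme switch library plasmids linked to reporters were introduced into HEK293T cells at 4 µg per 6-well well, with ligand, if any, added 1 h before. Total RNA was extracted with EDTA 72 h later, reverse-transcribed, amplified, barcoded and sequenced. RNA level was computed from RNA over DNA reads relative to a spiked-in non-cleaving sequence or the top sequences, then scaled and log-transformed. The top set was 25 sequences, values were ×100 and log10, and the cutoff was ≥100 DNA reads.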

(6R,S)-folinic acid [3] = variants of: B1; experiment: FACS-Seq fitted mean relative fluorescence mCherry/BFP with ligand (log10 relative fluorescence); HEK293T overexpressing SLC46A1; ligand concentration (+) FACS-Seq: 6 mM; higher = higher reporter protein expression; conditions: with (6R,S)-folinic acid; ligand present: yes
Summary of the method: as §1

(6R,S)-folinic acid [4] = variants of: B1; experiment: normalized RNA/DNA level with ligand (relative to sTRSVctl = 100) (log10 (% of sTRSVctl)); HEK293T overexpressing SLC46A1; ligand concentration (+) RNA-Seq: 6 mM; higher = less ribozyme self-cleavage, higher mRNA level; conditions: with (6R,S)-folinic acid; ligand present: yes
Summary of the method: as §2

| Variant | FACS-Seq fitted mean (log10) ((6R,S)-folinic acid [1]) | normalized RNA/DNA level without ligand (log10) ((6R,S)-folinic acid [2]) | FACS-Seq fitted mean (log10) ((6R,S)-folinic acid [3]) | normalized RNA/DNA level with ligand (log10) ((6R,S)-folinic acid [4]) |
| --- | --- | --- | --- | --- |
| GGAGUA | 0.117 ± 0.042 | 1.9805 ± 0.0005 | 0.0493 ± 0.22 | 2.03 ± 0.029 |
| GGAUAA | 0.686 ± 0.051 | 1.9974 ± 0.00055 | 0.655 ± 0.074 | 2.03 ± 0.026 |
| AGGAGG | 0.585 ± 0.15 | 1.922 ± 0.0095 | 0.614 ± 0.2 | 2.05 ± 0.03 |
| AGGAGA | 0.26 ± 0.062 | 1.931 ± 0.007 | 0.172 ± 0.078 | 2.018 ± 0.017 |
| UGCCGG | 0.22 ± 0.012 | 1.92 ± 0.011 | 0.707 ± 0.05 | 2.006 ± 0.018 |
| AGAUCA | -0.134 ± 0.025 | 2.01 ± 0.005 | -0.625 ± 0.07 | 2 ± 0.058 |
| AGCUUG | 0.529 ± 0.0056 | 1.964 ± 0.002 | 0.349 ± 0.32 | 2.03 ± 0.036 |
| UGCCAA | 0.194 ± 0.021 | 1.956 ± 0.015 | 0.168 ± 0.2 | 2.01 ± 0.0051 |
| UGCCAC | 0.366 ± 0.066 | 1.985 ± 0.017 | 0.438 ± 0.13 | 1.977 ± 0.013 |
| CGGGUA | -0.402 ± 0.16 | 1.939 ± 0.018 | -0.606 ± 0.59 | 1.97 ± 0.054 |
| UGCUAG | 0.312 ± 0.12 | 1.76 ± 0.028 | 0.441 ± 0.057 | 1.972 ± 0.014 |
| UGCUAA | 0.427 ± 0.062 | 1.97 ± 0.026 | 0.537 ± 0.11 | 2.018 ± 0.016 |
| AGCCGU | 0.507 ± 0.044 | 2.018 ± 0.017 | 0.3424 ± 0.0012 | 2.0145 ± 0.00041 |
| GGCAUA | 0.173 ± 0.12 | 2.032 ± 0.012 | 0.286 ± 0.1 | 2.01 ± 0.027 |
| UGGGCC | 0.229 ± 0.0089 | 2.048 ± 0.012 | 0.157 ± 0.022 | 2.03 ± 0.0098 |
| UGGGCG | 0.142 ± 0.034 | 1.787 ± 0.014 | 0.637 ± 0.097 | 2.009 ± 0.0047 |
| AGAUAA | 0.0208 ± 0.12 | 1.96 ± 0.006 | 0.14 ± 0.2 | 1.981 ± 0.012 |
| AGCACU | 0.282 ± 0.032 | 2.02 ± 0.025 | 0.113 ± 0.16 | 2 ± 0.028 |
| UGGGUG | -0.154 ± 0.034 | 1.687 ± 0.0083 | 0.261 ± 0.016 | 1.95 ± 0.057 |
| CGCUGC | 0.0944 ± 0.13 | 2.091 ± 0.012 | -0.0623 ± 0.071 | 2.0496 ± 0.0017 |
| AGAUUA | 0.568 ± 0.048 | 2.001 ± 0.018 | 0.535 ± 0.036 | 2.01 ± 0.037 |
| AGAUUC | 0.551 ± 0.08 | 2.05 ± 0.0077 | 0.54 ± 0.24 | 2.04 ± 0.042 |
| CGCAAC | 0.453 ± 0.13 | 2.027 ± 0.0066 | 0.417 ± 0.14 | 1.99 ± 0.013 |
| CGGAUG | 0.00208 ± 0.054 | 2 ± 0.024 | -0.0609 ± 0.15 | 2.02 ± 0.043 |

| Variant | FACS-Seq fitted mean (log10) ((6R,S)-folinic acid [1]) | normalized RNA/DNA level without ligand (log10) ((6R,S)-folinic acid [2]) | FACS-Seq fitted mean (log10) ((6R,S)-folinic acid [3]) | normalized RNA/DNA level with ligand (log10) ((6R,S)-folinic acid [4]) |
| --- | --- | --- | --- | --- |
| CGGAUA | 0.0197 ± 0.04 | 1.9689 ± 0.0014 | -0.118 ± 0.034 | 1.98 ± 0.061 |
| UGCCUG | 0.68 ± 0.017 | 1.875 ± 0.016 | 0.78 ± 0.085 | 2.02 ± 0.021 |
| AGAGCU | 0.596 ± 0.05 | 2.019 ± 0.006 | 0.275 ± 0.32 | 2.01 ± 0.029 |
| CGGCAU | 0.32 ± 0.03 | 2.011 ± 0.0083 | 0.52 ± 0.17 | 2.019 ± 0.02 |
| UGCAUU | 0.0991 ± 0.29 | 1.987 ± 0.01 | -0.057 ± 0.47 | 2.01 ± 0.043 |
| UGCAUG | 0.298 ± 0.025 | 1.734 ± 0.0064 | 0.712 ± 0.11 | 1.97 ± 0.026 |
| GGAGGC | -0.315 ± 0.075 | 1.936 ± 0.0065 | -0.531 ± 0.17 | 2.0118 ± 0.0015 |
| GGAGGU | 0.445 ± 0.085 | 2.02 ± 0.033 | 0.592 ± 0.05 | 2.05 ± 0.07 |
| UGAGUG | 0.376 ± 0.083 | 1.652 ± 0.011 | 0.652 ± 0.081 | 1.93 ± 0.023 |
| UGAGUA | 0.204 ± 0.015 | 1.911 ± 0.0073 | 0.422 ± 0.1 | 2 ± 0.043 |
| UGCUCG | 0.493 ± 0.023 | 1.84 ± 0.06 | 0.49 ± 0.049 | 1.96 ± 0.072 |
| UGCUCU | 0.473 ± 0.12 | 2.056 ± 0.014 | 0.2 ± 0.019 | 2.06 ± 0.029 |
| GGGGCC | -0.232 ± 0.1 | 2.05 ± 0.023 | -0.6 ± 0.34 | 2.05 ± 0.015 |
| GGGUAG | 0.0738 ± 0.081 | 1.979 ± 0.0061 | 0.00328 ± 0.082 | 2.013 ± 0.015 |
| GGGUAU | 0.149 ± 0.054 | 2.014 ± 0.015 | 0.284 ± 0.16 | 2.01 ± 0.033 |
| GGGUAA | 0.299 ± 0.036 | 1.997 ± 0.011 | 0.348 ± 0.28 | 2 ± 0.026 |
| GGGUAC | 0.536 ± 0.17 | 1.952 ± 0.0069 | 0.245 ± 0.036 | 1.99 ± 0.073 |
| AGCAGA | 0.0194 ± 0.039 | 1.98 ± 0.0025 | -0.229 ± 0.27 | 2.02 ± 0.029 |
| UGCGCU | 0.293 ± 0.033 | 2.043 ± 0.0054 | 0.428 ± 0.044 | 2.04 ± 0.03 |
| AGCGGU | 0.638 ± 0.18 | 1.952 ± 0.013 | 0.522 ± 0.022 | 2 ± 0.043 |
| UGAUCG | 0.0489 ± 0.16 | 1.84 ± 0.021 | 0.0432 ± 0.082 | 1.992 ± 0.016 |
| GGGAAG | 0.485 ± 0.082 | 1.955 ± 0.015 | 0.402 ± 0.061 | 2.04 ± 0.027 |
| GGCUUG | 0.434 ± 0.019 | 2.078 ± 0.012 | 0.292 ± 0.34 | 2.049 ± 0.018 |
| CGGGAC | -0.0861 ± 0.029 | 2.015 ± 0.0095 | -0.418 ± 0.079 | 2.02 ± 0.032 |

| Variant | FACS-Seq fitted mean (log10) ((6R,S)-folinic acid [1]) | normalized RNA/DNA level without ligand (log10) ((6R,S)-folinic acid [2]) | FACS-Seq fitted mean (log10) ((6R,S)-folinic acid [3]) | normalized RNA/DNA level with ligand (log10) ((6R,S)-folinic acid [4]) |
| --- | --- | --- | --- | --- |
| CGGGAU | 0.211 ± 0.017 | 1.97 ± 0.029 | 0.0466 ± 0.17 | 2 ± 0.049 |
| CGGGAA | 0.288 ± 0.27 | 1.98 ± 0.024 | 0.519 ± 0.063 | 2.02 ± 0.046 |
| AGGGAC | -0.124 ± 0.15 | 1.972 ± 0.011 | 0.0745 ± 0.15 | 1.994 ± 0.01 |
| AGGGAG | 0.271 ± 0.18 | 1.8747 ± 0.0018 | 0.349 ± 0.099 | 1.99 ± 0.046 |
| UGAGGG | 0.114 ± 0.058 | 1.657 ± 0.016 | 0.587 ± 0.016 | 1.95 ± 0.063 |
| UGAGGA | 0.309 ± 0.047 | 1.839 ± 0.0062 | 0.598 ± 0.2 | 1.99 ± 0.031 |
| AGGUCC | 0.442 ± 0.027 | 2.04 ± 0.0067 | 0.429 ± 0.22 | 2.03 ± 0.021 |
| UGGCAG | 0.237 ± 0.02 | 1.76 ± 0.059 | 0.61 ± 0.17 | 1.955 ± 0.013 |
| UGGCCA | 0.74 ± 0.1 | 2.04 ± 0.014 | 0.432 ± 0.081 | 2.057 ± 0.014 |
| CGGAAU | 0.329 ± 0.016 | 1.97 ± 0.022 | 0.208 ± 0.2 | 2.02 ± 0.034 |
| UGGAAG | 0.369 ± 0.058 | 1.653 ± 0.0055 | 0.695 ± 0.017 | 1.96 ± 0.039 |
| CGCAGC | 0.491 ± 0.09 | 2.01 ± 0.033 | 0.645 ± 0.4 | 2.01 ± 0.031 |
| UGCGGG | -0.0146 ± 0.0024 | 1.788 ± 0.011 | 0.675 ± 0.21 | 1.99 ± 0.043 |
| CGAGGG | 0.504 ± 0.034 | 1.844 ± 0.0078 | 0.672 ± 0.22 | 1.968 ± 0.011 |
| UGCAAU | 0.173 ± 0.069 | 1.841 ± 0.0071 | 0.456 ± 0.15 | 1.973 ± 0.016 |
| UGCAAA | 0.549 ± 0.013 | 1.957 ± 0.0057 | 0.532 ± 0.037 | 1.98 ± 0.034 |
| UGCGAU | 0.213 ± 0.026 | 1.85 ± 0.019 | -0.0289 ± 0.033 | 1.98 ± 0.029 |
| UGCGAG | 0.31 ± 0.21 | 1.71 ± 0.027 | -0.231 ± 0.053 | 1.96 ± 0.058 |
| UGCGAC | 0.375 ± 0.053 | 1.979 ± 0.018 | 0.26 ± 0.29 | 2.02 ± 0.034 |
| UGGUGG | 0.464 ± 0.054 | 1.736 ± 0.014 | 0.742 ± 0.064 | 1.96 ± 0.031 |
| UGGUGU | 0.386 ± 0.1 | 1.933 ± 0.014 | 0.292 ± 0.034 | 2.01 ± 0.048 |
| UGGUGA | 0.399 ± 0.049 | 1.881 ± 0.0069 | 0.443 ± 0.061 | 2.014 ± 0.0098 |
| UGCAGG | -0.138 ± 0.052 | 1.68 ± 0.029 | -0.00907 ± 0.1 | 1.909 ± 0.017 |
